From patent US20250218531A1 (ABSCI, published 2025)

Tests used:
[1] = biological target: T1, SARS-COV2 Spike RBD, Beta (SARS-CoV-2, UniProt P0DTC2 319-541); experiment: SPR; 'N/A indicates a lack of binding'
T1 construct: domain: RBD

[2] = biological target: T2, SARS-COV2 Spike RBD, Delta (SARS-CoV-2, UniProt P0DTC2 319-541); experiment: SPR; 'N/A indicates a lack of binding'
T2 construct: domain: RBD

B1: AI-Designed Binder (de novo casirivimab HCDR3 variant) (Fab, V domains shown)
VH: QVQLVESGGGLVKPGGSLRLSCAASGFTFSDYYMSWIRQAPGKGLEWVSYITYSGSTIYYADSVKGRFTISRDNAKSSLYLQMNSLRAEDTAVYYCARDWGQTWDSYFDYWGQGTLVTVSS
VL: DIQMTQSPSSLSASVGDRVTITCQASQDITNYLNWYQQKPGKAPKLLIYAASNLETGVPSRFSGSGSGTDFTFTISGLQPEDIATYYCQQYDNLPLTFGGGTKVEIKR
notes: Fab format
Question: Does B1 bind [1]?
Answer: no binding

Question: Does B1 bind [2]?
Answer: no binding
